In general, Kd refers to the constant that tells how readily two partners part at equilibrium. A low value points to a tighter complex.

First the molecules themselves.
T1: PUF4 RNA-binding domain (Saccharomyces cerevisiae, UniProt P25339 537-888)
T1 sequence: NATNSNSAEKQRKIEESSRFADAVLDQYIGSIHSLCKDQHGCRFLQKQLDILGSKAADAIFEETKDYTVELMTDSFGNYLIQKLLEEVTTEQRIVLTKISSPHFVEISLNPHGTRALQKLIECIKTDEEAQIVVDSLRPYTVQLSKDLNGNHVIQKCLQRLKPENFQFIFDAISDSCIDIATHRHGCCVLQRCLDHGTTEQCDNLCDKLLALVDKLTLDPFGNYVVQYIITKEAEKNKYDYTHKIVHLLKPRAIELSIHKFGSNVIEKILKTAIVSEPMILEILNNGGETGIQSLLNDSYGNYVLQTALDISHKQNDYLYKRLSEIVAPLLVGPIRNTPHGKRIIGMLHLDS

The data set deals with T1, PUF4 RNA-binding domain. The data set can be described thus: Mg; RNA-MaP; 20 mM Na-HEPES pH 7.4, 30 mM KOAc, 0.75 mM MgCl2, 0.1% Tween-20, 5% glycerol, 0.1 mg/mL BSA, 2 mM DTT; 25 C; 0.0125-409.6 nM protein. Particulars: tags: N-His6-TEV cleaved; C-SNAP kept, Cy3B-labelled; label: tethered on chip by stalled RNA polymerase.
Molecule UCUCUUCUACACUAUAUAUCUCUU (ssRNA) [If_S1_P3E.4_K3.3_C3.2_H3.3_A3.1_F3.1_T3.2] gave a Kd of 1000 nM. UCUCUUCUACACUAUAGUUCUCUU (ssRNA) [Id_ii_S1_P3E.4_K3.3_C3.2_H3.3_A3.1_F3.1_T3.2_[T9G]_[A10T]] had a Kd greater than 2300 nM. UCUCUUCUACACUAUAAUUCUCUU (ssRNA) [Id_ii_S1_P3E.4_K3.3_C3.2_H3.3_A3.1_F3.1_T3.2_[T9A]_[A10T]] returned a Kd of 1870 nM. With UCUCUUAUACACUAUACCUCUCUU (ssRNA) [Id_ii_S1_P3E.4_K3.3_C3.2_[C-2A]_H3.3_A3.1_F3.1_T3.2_[T9C]_[A10C]], binding was characterised by a dissociation constant (Kd) of 30.1 nM. In the case of UCUCUUGCUGUAUAUUAUUUCUCUU (ssRNA) [Id_ii_S1_P4E.2_K4.1_C4.2_[C-2G]_[T-1C]_H4.1_A4.1_F4.1_T4.2_[G10T]], the affinity, expressed as Kd, was 1.28 nM. UCUCUUCCACACUAUAUUUCUCUU (ssRNA) [Id_ii_S1_P3E.4_K3.3_C3.2_[T-1C]_H3.3_A3.1_F3.1_T3.2_[A10T]]: the Kd was greater than 2300 nM. Turning to UCUCUUGCUGUAUAUUAUGUCUCUU (ssRNA) [Id_ii_S1_P4E.2_K4.1_C4.2_[C-2G]_[T-1C]_H4.1_A4.1_F4.1_T4.2_[G10T]_[T11G]], the affinity, expressed as Kd, was 2.24 nM. As for UCUCUUCUACACUAUAUCUCUCUU (ssRNA) [Id_ii_S1_P3E.4_K3.3_C3.2_H3.3_A3.1_F3.1_T3.2_[A10C]], the figure is 1460 nM. Take UCUCUUAUACACUAUAUUUCUCUU (ssRNA) [Id_ii_S1_P3E.4_K3.3_C3.2_[C-2A]_H3.3_A3.1_F3.1_T3.2_[A10T]]: the Kd was 38.6 nM.

UCUCUUCCACACUAUACUUCUCUU (ssRNA) [Id_ii_S1_P3E.4_K3.3_C3.2_[T-1C]_H3.3_A3.1_F3.1_T3.2_[T9C]_[A10T]] yielded a Kd greater than 2300 nM. As for UCUCUUAUACACUAUACAUCUCUU (ssRNA) [Id_ii_S1_P3E.4_K3.3_C3.2_[C-2A]_H3.3_A3.1_F3.1_T3.2_[T9C]], the figure is 34.9 nM; as for UCUCUUCAACACUAUAACUCUCUU (ssRNA) [Id_ii_S1_P3E.4_K3.3_C3.2_[T-1A]_H3.3_A3.1_F3.1_T3.2_[T9A]_[A10C]], greater than 2300 nM; as for UCUCUUCUACACUAUAGCUCUCUU (ssRNA) [Id_ii_S1_P3E.4_K3.3_C3.2_H3.3_A3.1_F3.1_T3.2_[T9G]_[A10C]], greater than 2300 nM.

UCUCUUCAACACUAUAAAUCUCUU (ssRNA) [Id_ii_S1_P3E.4_K3.3_C3.2_[T-1A]_H3.3_A3.1_F3.1_T3.2_[T9A]]: the Kd is greater than 2300 nM. In turn, UCUCUUAUACACUAUAGCUCUCUU (ssRNA) [Id_ii_S1_P3E.4_K3.3_C3.2_[C-2A]_H3.3_A3.1_F3.1_T3.2_[T9G]_[A10C]] had a Kd of 45.7 nM. Take UCUCUUCCACACUAUACCUCUCUU (ssRNA) [Id_ii_S1_P3E.4_K3.3_C3.2_[T-1C]_H3.3_A3.1_F3.1_T3.2_[T9C]_[A10C]]: the Kd was greater than 2300 nM. UCUCUUAUACACUAUAAUUCUCUU (ssRNA) [Id_ii_S1_P3E.4_K3.3_C3.2_[C-2A]_H3.3_A3.1_F3.1_T3.2_[T9A]_[A10T]] yielded a Kd of 43.5 nM.

UCUCUUGCUGUAUAUUACCUCUCUU (ssRNA) [Id_ii_S1_P4E.2_K4.1_C4.2_[C-2G]_[T-1C]_H4.1_A4.1_F4.1_T4.2_[G10C]_[T11C]] displayed a Kd of 0.957 nM. UCUCUUGCUGUAUAUUAUCUCUCUU (ssRNA) [Id_ii_S1_P4E.2_K4.1_C4.2_[C-2G]_[T-1C]_H4.1_A4.1_F4.1_T4.2_[G10T]_[T11C]] yielded a Kd of 1.14 nM. Turning to UCUCUUCCACACUAUACAUCUCUU (ssRNA) [Id_ii_S1_P3E.4_K3.3_C3.2_[T-1C]_H3.3_A3.1_F3.1_T3.2_[T9C]], the Kd is greater than 2300 nM. Turning to UCUCUUAUACACUAUAACUCUCUU (ssRNA) [Id_ii_S1_P3E.4_K3.3_C3.2_[C-2A]_H3.3_A3.1_F3.1_T3.2_[T9A]_[A10C]], the Kd is 46.2 nM. The same measure for UCUCUUGCUGUAUAUUAUAUCUCUU (ssRNA) [Id_ii_S1_P4E.2_K4.1_C4.2_[C-2G]_[T-1C]_H4.1_A4.1_F4.1_T4.2_[G10T]_[T11A]]: 1.92 nM; for UCUCUUAUACACUAUAUCUCUCUU (ssRNA) [Id_ii_S1_P3E.4_K3.3_C3.2_[C-2A]_H3.3_A3.1_F3.1_T3.2_[A10C]]: 40.6 nM.

In turn, UCUCUUAUACACUAUAUAUCUCUU (ssRNA) [Id_ii_S1_P3E.4_K3.3_C3.2_[C-2A]_H3.3_A3.1_F3.1_T3.2] showed a Kd of 31.3 nM. In turn, UCUCUUCAACACUAUAGAUCUCUU (ssRNA) [Id_ii_S1_P3E.4_K3.3_C3.2_[T-1A]_H3.3_A3.1_F3.1_T3.2_[T9G]] returned a Kd greater than 2300 nM.

UCUCUUCCACACUAUAAUUCUCUU (ssRNA) [Id_ii_S1_P3E.4_K3.3_C3.2_[T-1C]_H3.3_A3.1_F3.1_T3.2_[T9A]_[A10T]]: the Kd is greater than 2300 nM. Turning to UCUCUUCUACACUAUAUGUCUCUU (ssRNA) [Id_ii_S1_P3E.4_K3.3_C3.2_H3.3_A3.1_F3.1_T3.2_[A10G]], binding was put at a Kd of 1320 nM. Regarding UCUCUUCGACACUAUAAUUCUCUU (ssRNA) [Id_ii_S1_P3E.4_K3.3_C3.2_[T-1G]_H3.3_A3.1_F3.1_T3.2_[T9A]_[A10T]], the Kd is greater than 2300 nM.

In the case of UCUCUUGCUGUAUAUUAACUCUCUU (ssRNA) [Id_ii_S1_P4E.2_K4.1_C4.2_[C-2G]_[T-1C]_H4.1_A4.1_F4.1_T4.2_[G10A]_[T11C]], binding was put at a Kd of 1.52 nM.

UCUCUUUUUAUAAUAUCUCUU (ssRNA) [Ib_S1_P4E.1_K4.1_C4.1_H4.1_[G2T]_A4.1_[T7A]_F4.1_T4.1] showed a Kd of 1450 nM. The same measure for UCUCUUAUACACUAUACUUCUCUU (ssRNA) [Id_ii_S1_P3E.4_K3.3_C3.2_[C-2A]_H3.3_A3.1_F3.1_T3.2_[T9C]_[A10T]]: 36.1 nM; for UCUCUUUUUAUACUAUCUCUU (ssRNA) [Ib_S1_P4E.1_K4.1_C4.1_H4.1_[G2T]_A4.1_[T7C]_F4.1_T4.1]: 1060 nM; for UCUCUUCCACACUAUAAAUCUCUU (ssRNA) [Id_ii_S1_P3E.4_K3.3_C3.2_[T-1C]_H3.3_A3.1_F3.1_T3.2_[T9A]]: greater than 2300 nM. As for UCUCUUUUUAUAGUAUCUCUU (ssRNA) [Ib_S1_P4E.1_K4.1_C4.1_H4.1_[G2T]_A4.1_[T7G]_F4.1_T4.1], the figure is greater than 2300 nM; as for UCUCUUCAACACUAUAUCUCUCUU (ssRNA) [Id_ii_S1_P3E.4_K3.3_C3.2_[T-1A]_H3.3_A3.1_F3.1_T3.2_[A10C]], greater than 2300 nM. The same measure for UCUCUUCGACACUAUAGCUCUCUU (ssRNA) [Id_ii_S1_P3E.4_K3.3_C3.2_[T-1G]_H3.3_A3.1_F3.1_T3.2_[T9G]_[A10C]]: greater than 2300 nM.

As for UCUCUUGCUGUAUAUUAAUUCUCUU (ssRNA) [Id_ii_S1_P4E.2_K4.1_C4.2_[C-2G]_[T-1C]_H4.1_A4.1_F4.1_T4.2_[G10A]], binding was put at a Kd of 2.69 nM. In turn, UCUCUUCGACACUAUACUUCUCUU (ssRNA) [Id_ii_S1_P3E.4_K3.3_C3.2_[T-1G]_H3.3_A3.1_F3.1_T3.2_[T9C]_[A10T]] showed a Kd greater than 2300 nM. As for UCUCUUCUACACUAUAACUCUCUU (ssRNA) [Id_ii_S1_P3E.4_K3.3_C3.2_H3.3_A3.1_F3.1_T3.2_[T9A]_[A10C]], the figure is greater than 2300 nM. The same measure for UCUCUUCUACACUAUACAUCUCUU (ssRNA) [Id_ii_S1_P3E.4_K3.3_C3.2_H3.3_A3.1_F3.1_T3.2_[T9C]]: 2230 nM; for UCUCUUCGACACUAUAACUCUCUU (ssRNA) [Id_ii_S1_P3E.4_K3.3_C3.2_[T-1G]_H3.3_A3.1_F3.1_T3.2_[T9A]_[A10C]]: greater than 2300 nM; for UCUCUUAUACACUAUACGUCUCUU (ssRNA) [Id_ii_S1_P3E.4_K3.3_C3.2_[C-2A]_H3.3_A3.1_F3.1_T3.2_[T9C]_[A10G]]: 74.5 nM. UCUCUUCCACACUAUAGCUCUCUU (ssRNA) [Id_ii_S1_P3E.4_K3.3_C3.2_[T-1C]_H3.3_A3.1_F3.1_T3.2_[T9G]_[A10C]] gave a Kd greater than 2300 nM. UCUCUUCAACACUAUACCUCUCUU (ssRNA) [Id_ii_S1_P3E.4_K3.3_C3.2_[T-1A]_H3.3_A3.1_F3.1_T3.2_[T9C]_[A10C]] gave a Kd greater than 2300 nM. As for UCUCUUUAUAUAGUAUCUCUU (ssRNA) [Ib_S1_P4E.1_K4.1_C4.1_H4.1_[G2A]_A4.1_[T7G]_F4.1_T4.1], the figure is 50.5 nM.
